The values that follow come from patent publication US20250289888A1.

The EC50 is the concentration needed to bring the measured effect to its halfway point. The low end stands for a more potent agent, the high end for a less potent agent.

Targets include mouse FcγRIII (mouse) (UniProt P08508); mouse FcγRIV (mouse); human FcγRIIb (human) (UniProt P31994).
Assay in all cases: cell-based or functional assay
Assay [1] addresses human FcγRIIa, H variant (human) (UniProt P12318).
Assay [2] deals with human FcγRIIa, R variant (human) (UniProt P12318).
Sequence of human FcγRIIa, R variant (human) (P12318 other isoform, or with tags, fused parts or gaps mutant limits assumed): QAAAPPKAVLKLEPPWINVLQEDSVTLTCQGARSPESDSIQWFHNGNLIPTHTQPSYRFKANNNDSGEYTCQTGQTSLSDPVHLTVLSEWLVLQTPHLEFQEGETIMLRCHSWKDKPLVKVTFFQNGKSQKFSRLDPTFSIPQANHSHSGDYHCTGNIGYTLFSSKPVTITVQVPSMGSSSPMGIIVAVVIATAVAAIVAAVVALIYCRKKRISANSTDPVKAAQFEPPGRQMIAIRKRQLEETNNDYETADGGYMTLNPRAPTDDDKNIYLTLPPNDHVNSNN

Sequence of human FcγRIIa, H variant (human) (P12318 34-317, change not shown): as the sequence (P12318 other isoform, or with tags, fused parts or gaps mutant limits assumed) above, with R134H counted along it
Sequence of human FcγRIIb (human) (P31994 43-310): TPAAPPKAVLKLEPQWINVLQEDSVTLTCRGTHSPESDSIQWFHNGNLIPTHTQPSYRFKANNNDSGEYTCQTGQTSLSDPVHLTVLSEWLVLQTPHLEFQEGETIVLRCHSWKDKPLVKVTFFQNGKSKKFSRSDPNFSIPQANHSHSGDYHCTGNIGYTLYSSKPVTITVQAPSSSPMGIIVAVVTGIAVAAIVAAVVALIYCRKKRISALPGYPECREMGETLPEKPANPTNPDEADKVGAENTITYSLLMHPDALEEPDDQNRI
Sequence of mouse FcγRIV (mouse) (A0A0B4J1G0 21-203): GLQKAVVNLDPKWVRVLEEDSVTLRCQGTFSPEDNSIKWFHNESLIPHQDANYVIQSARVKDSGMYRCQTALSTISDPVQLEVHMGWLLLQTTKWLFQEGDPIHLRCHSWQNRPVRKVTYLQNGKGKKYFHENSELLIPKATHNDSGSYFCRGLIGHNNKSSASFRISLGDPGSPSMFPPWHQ
Sequence of mouse FcγRIII (mouse) (P08508 31-261): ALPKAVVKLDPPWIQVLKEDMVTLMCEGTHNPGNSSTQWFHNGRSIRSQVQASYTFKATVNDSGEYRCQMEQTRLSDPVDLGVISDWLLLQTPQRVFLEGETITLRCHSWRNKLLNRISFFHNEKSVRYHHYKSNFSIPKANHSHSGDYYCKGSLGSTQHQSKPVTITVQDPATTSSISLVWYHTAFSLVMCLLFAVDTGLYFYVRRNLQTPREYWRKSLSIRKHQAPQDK

Consider Ipilimumab (antibody), for which the Maximum luminescence (RLU) with mouse FcγRIII (mouse) stood at 17500 RLU; with mouse FcγRIV (mouse) it was 990 RLU; in assay [1], 973 RLU; with human FcγRIIb (human), 5800 RLU; in assay [2], 2640 RLU. Moreover, the EC50 with mouse FcγRIV (mouse) was 2.21 µg/mL; in assay [1] it was 0.05 µg/mL; with human FcγRIIb (human), 0.17 µg/mL; in assay [2], 0.21 µg/mL.
